{"source": "paper PMC7721900", "about": "“Assembly properties of bacterial tubulin homolog FtsZ regulated by the positive regulator protein ZipA and ZapA from Pseudomonas aeruginosa” (Scientific Reports, 2020)", "conditions_in_all_cases": "both partners purified", "key": {"[1]": {"target": "T1, FtsZ from Pseudomonas aeruginosa (P. aeruginosa, UniProt P47204 1-394)", "T1 construct": "FtsZ, Pseudomonas aeruginosa; cloned in pET15b at NdeI/BamHI; Forms protofilaments and bundles with GTP; also called PaFtsZ; source: E. coli BL21 (pET15b), purified (Talon column, thrombin, source Q 10/10)", "T1 sequence (looked up)": "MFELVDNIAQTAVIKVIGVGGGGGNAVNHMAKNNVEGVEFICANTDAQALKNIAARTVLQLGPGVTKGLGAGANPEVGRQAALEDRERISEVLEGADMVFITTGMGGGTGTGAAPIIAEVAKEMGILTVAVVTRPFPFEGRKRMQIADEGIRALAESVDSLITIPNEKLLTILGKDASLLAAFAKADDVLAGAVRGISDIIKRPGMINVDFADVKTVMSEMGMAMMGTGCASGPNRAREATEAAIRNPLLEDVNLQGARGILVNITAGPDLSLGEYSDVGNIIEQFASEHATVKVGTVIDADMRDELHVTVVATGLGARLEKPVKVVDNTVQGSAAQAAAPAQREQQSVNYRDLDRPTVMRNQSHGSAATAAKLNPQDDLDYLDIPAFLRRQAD", "assay": "negative stain electron microscopy; HMK buffer (50 mM HEPES, 100 mM KAc, 5 mM MgAc, pH 7.5), GTP, 1-5 min at room temperature; 3 or 5 µM PaFtsZ alone, or 5 µM PaFtsZ with 10 µM ZipA or ZapA"}, "[2]": {"target": "T1, FtsZ from Pseudomonas aeruginosa", "assay": "negative stain electron microscopy; MMK buffer (50 mM MES, 100 mM KAc, 5 mM MgAc, pH 6.5), GTP, 1-5 min at room temperature; 5 µM PaFtsZ alone, or with 10 µM ZipA or ZapA"}, "[3]": {"target": "T2, FtsZ from Escherichia coli (E. coli, UniProt P0A9A6 1-383)", "T2 construct": "FtsZ, Escherichia coli, wild type; in pET11b; also called EcFtsZ; wild type FtsZ; source: bacterially expressed (pET11b), purified (30% ammonium sulfate, source Q 10/10)", "T2 sequence (looked up)": "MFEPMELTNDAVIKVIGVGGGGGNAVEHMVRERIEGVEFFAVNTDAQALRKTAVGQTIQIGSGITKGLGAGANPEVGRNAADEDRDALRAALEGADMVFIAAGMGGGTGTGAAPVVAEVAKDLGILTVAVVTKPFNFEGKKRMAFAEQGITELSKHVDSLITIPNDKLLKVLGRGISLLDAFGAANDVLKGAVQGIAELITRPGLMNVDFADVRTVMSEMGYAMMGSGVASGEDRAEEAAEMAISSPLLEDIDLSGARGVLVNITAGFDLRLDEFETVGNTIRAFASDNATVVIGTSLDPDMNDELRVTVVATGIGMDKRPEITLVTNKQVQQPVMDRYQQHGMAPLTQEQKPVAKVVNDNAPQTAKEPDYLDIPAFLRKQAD", "assay": "light scattering; HMK buffer, room temperature, 340 nm; 7 µM EcFtsZ plus 10 µM EcZapA"}, "[4]": {"target": "T3, EcFtsZ-F268C labeled with fluorescein (donor) or tetramethylrhodamine (acceptor) (E. coli, UniProt P0A9A6 1-383, F268C, single cysteine labeled separately with Fluorescein 5-maleimide (donor) or Tetramethylrhodamine 5-maleimide (acceptor))", "T3 construct": "FtsZ, Escherichia coli, single cysteine mutant F268C (printed as L268C in the results); in pET11b; also called EcFtsZ-L268C; source: bacterially expressed (pET11b), purified (30% ammonium sulfate, source Q 10/10)", "T3 sequence (looked up)": "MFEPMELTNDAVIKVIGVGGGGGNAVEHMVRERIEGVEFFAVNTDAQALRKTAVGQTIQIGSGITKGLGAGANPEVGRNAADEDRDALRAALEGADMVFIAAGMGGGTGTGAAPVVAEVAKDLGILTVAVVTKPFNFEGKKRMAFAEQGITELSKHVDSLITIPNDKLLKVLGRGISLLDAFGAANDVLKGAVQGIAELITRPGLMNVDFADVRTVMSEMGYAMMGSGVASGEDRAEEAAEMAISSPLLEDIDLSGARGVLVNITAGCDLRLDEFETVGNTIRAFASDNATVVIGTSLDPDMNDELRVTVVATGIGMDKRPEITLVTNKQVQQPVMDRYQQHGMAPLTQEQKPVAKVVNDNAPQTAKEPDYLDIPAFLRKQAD", "assay": "FRET or BRET; HMK buffer; donor- and acceptor-labeled EcFtsZ-F268C polymerized separately for 5 min, alone or with 10 µM ZipA or ZapA, then mixed; decrease of donor fluorescence, single exponential fit; 7 µM EcFtsZ; subunit exchange at steady state"}, "[5]": {"target": "T2, FtsZ from Escherichia coli", "assay": "Bodipy fluorescence quenching assay of assembly; HMK buffer, room temperature; 7 µM EcFtsZ (less than 10% Bodipy labeled T151C/Y222W with wild type), alone or with 10 µM ZapA or ZipA"}}}
{"binder": "ZapA from Pseudomonas aeruginosa (natural protein, P. aeruginosa, UniProt Q9HTW3 1-104, looked up, ZapA, Pseudomonas aeruginosa; cloned in pET15b at NdeI/BamHI; Removal of the His tag is told only for PaFtsZ; also called PaZapA; source: E. coli BL21 (pET15b), purified (Talon column)) MSQSNTLTVQILDKEYCINCPDDERANLESAARYLDGKMREIRSSGKVIGADRVAVMAALNITHDLLHRKERLDQESSSTRERVRELLDRVDRALANPADAGEA", "values": [{"measurement": "binding result", "setting": "[1]", "result": "binds"}]}
{"binder": "N-terminal truncated PaZipA (26-289) (domain or fragment, P. aeruginosa, UniProt Q9I3I5 26-289, looked up, ZipA, Pseudomonas aeruginosa, residues 26-289; N-terminally truncated to remove the transmembrane domain; Removal of the His tag is told only for PaFtsZ; also called ZipA from Pseudomonas aeruginosa; source: E. coli BL21 (pET15b), purified (Talon column)) RRMRGGKGKLKFKLDRSFANLPDDDGDSAELLGPARVVEHREPSFDEQDLPSVSAREAKERKGGKRQEEPRQGDLDLDEGLALEADPSDAAETVEPRKGKSKGRKEKEREKAPAVAAEPAPVDEVLIINVIARDESGFKGPALLQNILESGLRFGDMDIFHRHESMAGNGEILFSMANAVKPGTFDLDDIDNFSTRAVSFFLGLPGPRHPKQAFDVMVAAARKLAHELNGELKDEQRSVLTAQTIEHYRQRIIDHERRSLMQKR", "values": [{"measurement": "binding result", "setting": "[2]", "result": "binds"}]}
{"binder": "ZapA from Escherichia coli (natural protein, E. coli, UniProt P0ADS2 1-109, looked up, ZapA, Escherichia coli; cloned in pET15b at NdeI/BamHI; Removal of the His tag is told only for PaFtsZ; also called EcZapA; source: E. coli BL21 (pET15b), purified (Talon column)) MSAQPVDIQIFGRSLRVNCPPDQRDALNQAADDLNQRLQDLKERTRVTNTEQLVFIAALNISYELAQEKAKTRDYAASMEQRIRMLQQTIEQALLEQGRITEKTNQNFE", "values": [{"measurement": "binding result", "setting": "[3]", "result": "binds"}, {"measurement": "binding result", "setting": "[4]", "result": "binds"}]}
{"binder": "EcFtsZ-T151C/Y222W labeled with Bodipy at Cys151 (natural protein, E. coli, UniProt P0A9A6 1-383, looked up, Bodipy-FL N-(2-aminoethyl)maleimide on Cys 151, FtsZ, Escherichia coli, double mutant T151C/Y222W; in pET11b; Used mixed with a ninefold excess of unlabeled wild-type EcFtsZ; also called Bodipy labeled FtsZ; labeled EcFtsZ; source: bacterially expressed (pET11b), purified (30% ammonium sulfate, source Q 10/10)) MFEPMELTNDAVIKVIGVGGGGGNAVEHMVRERIEGVEFFAVNTDAQALRKTAVGQTIQIGSGITKGLGAGANPEVGRNAADEDRDALRAALEGADMVFIAAGMGGGTGTGAAPVVAEVAKDLGILTVAVVTKPFNFEGKKRMAFAEQGICELSKHVDSLITIPNDKLLKVLGRGISLLDAFGAANDVLKGAVQGIAELITRPGLMNVDFADVRTVMSEMGWAMMGSGVASGEDRAEEAAEMAISSPLLEDIDLSGARGVLVNITAGFDLRLDEFETVGNTIRAFASDNATVVIGTSLDPDMNDELRVTVVATGIGMDKRPEITLVTNKQVQQPVMDRYQQHGMAPLTQEQKPVAKVVNDNAPQTAKEPDYLDIPAFLRKQAD", "values": [{"measurement": "binding result", "setting": "[5]", "result": "binds"}]}
